Results: patent US12018084B2, “Anti-CXCR2 antibodies and uses thereof” (Cephalon LLC, priority 2018, dated 2024)
Positions count from the first letter of the chain named. Several values for one entry are separate records, joined by “and”; a condition that tells them apart may be missing. Identical values can stand only once.

B1: BKO-4A8: parental anti-CXCR2 antibody, VH SEQ ID NO: 17, VL SEQ ID NO: 18 (antibody, V domains shown)
VH: EVQLLESGGGLVQPGGSLRLSCAASGFTFSSSTMSWVRQAPGKGLEWVSAISGRGRNTYYADSVKGRFTISRDNSRNTLYLQMNSLRAEDTAVYYCAIQMGYWGQGILVTVSS
VL: QSALTQPPSASGSPGQSVTISCIGTSSDVGGYNYVSWYQQHPDKAPKLMIYEVNKRPSGVPDRFSGSKSGNTASLTVSGLQAEDEADYYCSSYAGNNNFGVFGGGTKLTVL
modifications: BKO_4A8_VH; BKO_4A8_VL
B2: 101c: VH SEQ ID NO: 108, VL SEQ ID NO: 110; renamed BKO-4A8-101c (antibody, V domains shown)
VH: B1 VH with M34Q, A40P, N57S, R76K, M100A
VL: B1 VL with D43G, N54S, N96S
modifications: 4A8 VH Variant 101 M34Q_A40P_N56S_R75K_M96A; 4A8 VL variant c D41G_N52S_N94S
notes: renamed BKO-4A8-101c

What was measured:
Murine CXCR2 = molecular target: T1, Murine CXCR2 (Mus musculus, UniProt P35343); assay: cELISA of hybridoma supernatants on cells transfected with murine CXCR2; assay type: binding; conditions: hybridoma supernatant; fluorescence units relative to positive control (100%)
T1 construct: expressed in transfected cells
T1 sequence (P35343 1-359): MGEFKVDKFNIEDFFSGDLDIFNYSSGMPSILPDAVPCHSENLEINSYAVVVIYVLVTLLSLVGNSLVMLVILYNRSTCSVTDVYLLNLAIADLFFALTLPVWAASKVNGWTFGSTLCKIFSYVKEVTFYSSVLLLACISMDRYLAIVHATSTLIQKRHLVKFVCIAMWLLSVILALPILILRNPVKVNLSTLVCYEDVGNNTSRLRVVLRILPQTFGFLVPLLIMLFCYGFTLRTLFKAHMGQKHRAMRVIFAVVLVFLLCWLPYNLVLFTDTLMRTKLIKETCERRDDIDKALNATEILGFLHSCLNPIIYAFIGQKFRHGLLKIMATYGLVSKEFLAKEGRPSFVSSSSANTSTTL

Human CXCR2 = molecular target: T2, Human CXCR2 (Homo sapiens, UniProt P25025); assay: Flow cytometry binding assay, Expi293F cells transiently transfected with human CXCR2; parameters: host or cells: Expi293F cells, vector pTT5
T2 sequence (P25025 1-360): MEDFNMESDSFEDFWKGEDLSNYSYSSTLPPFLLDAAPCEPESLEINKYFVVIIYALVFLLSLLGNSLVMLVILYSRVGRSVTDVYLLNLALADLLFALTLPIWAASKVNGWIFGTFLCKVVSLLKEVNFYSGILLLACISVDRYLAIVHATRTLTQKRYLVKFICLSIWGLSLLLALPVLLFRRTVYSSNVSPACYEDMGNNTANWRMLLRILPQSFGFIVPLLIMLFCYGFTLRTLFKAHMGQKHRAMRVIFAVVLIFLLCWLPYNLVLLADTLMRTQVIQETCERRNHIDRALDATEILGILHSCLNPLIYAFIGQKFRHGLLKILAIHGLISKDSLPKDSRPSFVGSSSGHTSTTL
Experimental: For each 10 mL transfection, lipid-DNA complexes were prepared by diluting 10 μg of plasmid DNA in Opti-MEM™ I Reduced Serum Medium (Cat. no. 31985-062) to a total volume of 1.0 mL. 54 μL of ExpiFectamine™ 293 Reagent was diluted in Opti-MEM™ I medium to a total volume of 1.0 mL. Transfections were carried out according to manufacturer's instructions. The cells were incubated in a 37° C. incubator with a humidified atmosphere of 8% CO2 in air on an orbital shaker rotating at 200 rpm. Approximately 18-24 hours post-transfection, the cell viability was evaluated and transfected cells harvested for use.
(§1) Harvested cells were resuspended in FACS buffer (1×PBS+0.5% (w/v) bovine serum albumin (BSA)+2 mM EDTA pH 7.2). Approximately 2×10^5 cells were added per well in a 96-well round-bottomed plate. Cells were pelleted by centrifugation at 400 g for 5 mins at 4° C. and supernatants discarded. 25 μL of each test antibody or control antibody was added to the cells and incubated for 30 minutes at 4° C. Cells were washed twice in 100 μL FACS buffer followed by centrifugation at 400 g for 5 mins at 4° C.
(§2) For detection, 50 μL of secondary antibody (Table 2) was added to relevant samples. Commercially available antibodies that bound to transfected CXCR family members were used as positive controls to ensure that the cells were expressing the receptors. Cells were washed twice in 200 μL of FACS buffer followed by centrifugation at 400 g for 5 mins at 4° C. Before sample acquisition, cells were resuspended in 100 μL of FACS buffer. Samples were acquired using the high throughput sampler on a FACSCanto™ II cytometer (Beckton-Dickinson).
Binding of BKO-4A8 and variants thereof was detected by incubation of fluorochrome-conjugate anti-human IgG light chain lambda antibody. The binding activity of antibodies tested, quantified as mean fluorescent intensity, was independent of the antibody Fc region as illustrated in FIG. 9.

[1] = system: native cynomolgus CXCR2 expressed by cynomolgus neutrophils; assay: Flow cytometry binding to cynomolgus blood neutrophils; parameters: species or system cynomolgus monkey; conditions: FIG. 2, MFI
Chain of native cynomolgus CXCR2 expressed by cynomolgus neutrophils (as listed by the source): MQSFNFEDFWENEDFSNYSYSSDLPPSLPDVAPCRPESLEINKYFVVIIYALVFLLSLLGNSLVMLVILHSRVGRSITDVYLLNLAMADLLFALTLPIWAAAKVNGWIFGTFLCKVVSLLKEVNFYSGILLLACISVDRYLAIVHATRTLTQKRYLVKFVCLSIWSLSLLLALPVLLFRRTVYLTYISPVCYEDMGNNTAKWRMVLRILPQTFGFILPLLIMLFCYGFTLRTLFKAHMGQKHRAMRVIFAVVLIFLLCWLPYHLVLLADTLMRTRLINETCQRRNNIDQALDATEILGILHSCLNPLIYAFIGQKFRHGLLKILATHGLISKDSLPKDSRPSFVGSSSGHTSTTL
Experimental: Whole human buffy coat, PBMC enriched fractions prepared from human peripheral blood buffy coat or cynomolgus monkey whole blood was used for analysis of antibody binding activity by flow cytometry. Briefly, blood was untreated or diluted 1:1 in sterile filtered room temperature phosphate-buffered saline (PBS). 30 mL samples were layered over 15 mL Lymphoprep™ (Stem Cell Technologies, cat #07851). Peripheral blood mononuclear cells (PBMC) were enriched by room temperature centrifugation at 700 g for 30 minutes with no braking. The PBMC layer was isolated and cells washed in PBS containing 2 mM EDTA with low speed centrifugation at 200 g, to remove platelet contamination. Whole blood or PBMC enriched cell fractions were resuspended in red blood cell lysing solution (BioLegend, 420301). Viable cell counts were determined and cells resuspended at 1×10^7 cells per mL in FACS buffer (1×PBS+0.5% (w/v) BSA+2 mM EDTA pH 7.2).
Flow cytometry binding assays using whole blood or PBMC enriched preparations: Binding assays to detect CXCR2 on blood neutrophil populations using test antibodies were performed essentially as described for assays using transiently transfected Expi293F™ cells. Binding of antibodies to human CXCR2 on the surface of the neutrophils was measured using anti-CXCR2 antibody directly conjugated to the fluorophore allophycocyanin (APC). Matched isotype control antibodies were included for comparison. Cells were incubated with lineage specific antibodies and 2 μg/ml of APC conjugated anti-CXCR2 antibody or isotype control prepared in ice cold 3% BSA/PBS for a minimum of 30 minutes at 4° C. The commercial anti-CXCR2 antibody (clone 48331 (R&D Systems FAB331A)) was used as a positive control. […] The level of fluorescence on the cell surface was measured by flow cytometry. Using this method, test anti-CXCR2 antibodies were detected binding neutrophils from both human and cynomolgus monkey.

[2] = system: human CXCR family members (CXCR1, CXCR3, CXCR4, CXCR5, CXCR6, CXCR7); assay: Flow cytometry binding to other human CXCR family members on transfected Expi293F cells; conditions: FIG. 11
Experimental: as §1
as §2, with “(Beckton-Dickinson). […]” for “(Beckton-Dickinson).”
The specificity of the anti-CXCR2 antibody BKO-4A8-101c was tested by assessing binding activity on Expi293F™ cells transiently transfected to express closely related human CXCR family members as illustrated in FIG. 11. Binding of BKO-4A8-101c was detected by incubation of fluorochrome-conjugate anti-human IgG antibody.

| Molecule | Murine CXCR2 % Positive (Murine CXCR2) | Max binding (MFI) (Human CXCR2; combinatorial variants with light chain c, listed as 4A8 Control) | EC50 (Human CXCR2; combinatorial variants, Table 11) | binding to native cynomolgus CXCR2 on cynomolgus PBMCs / neutrophils [1] | specificity of binding among human CXCR family members [2] |
| --- | --- | --- | --- | --- | --- |
| B1 | 5% | 62074 MFI and 82797 MFI | 0.4 nM | high binding activity | – |
| B2 | – | – | – | – | strongly and exclusively bind human CXCR2 |
